14 variants from IntAct's records for PubMed 22493017 can be followed below.

To fix the notation:
B1: Protein TonB (Escherichia coli (strain K12)), P02929 (parent)
chain: MTLDLPRRFPWPTLLSVCIHGAVVAGLLYTSVHQVIELPAPAQPISVTMVTPADLEPPQAVQPPPEPVVEPEPEPEPIPEPPKEAPVVIEKPKPKPKPKPKPVKKVQEQPKRDVKPVESRPASPFENTAPARLTSSTATAATSKPVTSVASGPRALSRNQPQYPARAQALRIEGQVKVKFDVTPDGRVDNVQILSAKPANMFEREVKNAMRRWRYEPGKPGSGIVVNILFKINGTTEIQ
partner: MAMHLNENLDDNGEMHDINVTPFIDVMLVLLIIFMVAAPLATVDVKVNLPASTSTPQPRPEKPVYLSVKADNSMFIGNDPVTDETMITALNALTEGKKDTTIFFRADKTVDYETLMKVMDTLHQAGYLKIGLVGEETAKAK
B2: Biopolymer transport protein ExbD (Escherichia coli (strain K12)), P0ABV2 (parent)
chain: B1 partner

The variants in the first assay derive from B1. As to conditions: with exbd_ecoli exbD, P0ABV2.
For R204C, the “effect of a mutation on the interaction” value is recorded as “increasing interaction”.
As to L170C, the “effect of a mutation on the interaction” value was “increasing interaction”.
On the same count and under the same terms, the same measure for F202C: “increasing interaction”; for A150C: “increasing interaction”; for Q168C: “increasing interaction”.
The same measure, in the same setting: the result for N200C reads “increasing interaction”; that for R212C, “increasing interaction”.
On to P164C, for which the “effect of a mutation on the interaction” value was “increasing interaction”.
On the same count and under the same terms, the result for R166C reads “increasing interaction”; that for G152C, “increasing interaction”.

In the next assay the parent is B2. As to conditions: with tonb_ecoli tonB, P02929.
Take D25N: the “effect of a mutation on the interaction” value is reported as “decreasing interaction”.
The same measure, in the same setting: the result for T109C reads “increasing interaction”; that for A92C, “increasing interaction”; that for K97C, “increasing interaction”.
